The values below come from article doi:10.1101/346296.

Assay [1] has as its target WT nucleosomal array (recombinant Xenopus laevis histone octamers on 601-177-12 or 601-177-36 DNA) (Xenopus laevis). The assay can be described thus: AUC.
The target of assay [2] is WT nucleosomal array with Sir2/4 complex added beforehand (S. cerevisiae | Xenopus laevis) (UniProt P06700). The assay can be described thus: AUC.

As to “FLAG-tagged Sir3 protein (from UniProt P06701 1-978) (natural protein)”, the stoichiometry N (molecules of Sir3 per array) in assay [1] and in assay [2] was 22 throughout.
As to “TAP-tagged Sir2/4 complex (from UniProt P06700;P11978)”, in assay [1], the stoichiometry N (Sir2/4 per nucleosome) is 1, the stoichiometry N (complexes bound per array) is 4 and the stoichiometry N (molecules of Sir2/4 per array) turned out to be 11.
